Assay results as given in patent US20230399374A1, “Compounds, Compositions and Methods of Use to Treat Bone Fractures” (PURDUE RESEARCH FOUNDATION, priority 2020, published 2023).
Non-standard residues stand in square brackets, D forms with d. Residues, ends and D or L forms follow the SMILES beside them. No end group written: not given here. *: point of attachment. X2 = CC1(C)C(/C=C/C2=C(Oc3ccc(CCNC(=O)CCN4C(=O)CC(*)C4=O)cc3)C(=C/C=C3/N(CCCCS(=O)(=O)O)c4ccc(S(=O)(=O)O)cc4C3(C)C)/CCC2)=[N+](CCCCS(=O)(=O)O)c2ccc(S(=O)(=O)O)cc21; Fmoc = O=C(OCC1c2ccccc2-c2ccccc21)*

Tests used:
[1] = Half-life of S0456 near-IR dye conjugates at the fracture site; settings: female, ND-4 Swiss-Webster, mouse, in vivo, sc, 250 nmol/mouse
Procedure: (§1) All animal experiments were performed in accordance with protocols approved by Purdue University's Institutional Animal Care and Use Committee (IACUC).

[2] = mouse, in vivo, iv
Procedure: as §1

midshaft femur fractures = settings: mouse, in vivo
Procedure: To explore the impact of peptide branching on payload targeting, the abilities of acidic oligo-aspartic acids constructed of either two chains of 5 aspartic acids each or a single linear chain of 10 aspartic acids to deliver the CK2.3 payload to fracture surfaces were compared. […] The biodistributions were determined 18 hours post-injection into ND-4 Swiss-Webster mice (n=5) bearing midshaft femur fractures 10 days post-fracture.
The biodistributions were determined 18 hours post-injection into ND-4 Swiss-Webster mice (n=5) bearing midshaft femur fractures 10 days post-fracture.
The biodistributions were determined 18 hours post-injection (e.g., into ND-4 Swiss-Webster mice (n=5) bearing midshaft femur fractures 10 days post-fracture).
In some instances, the biodistribution is determined 18 hours post-injection (e.g., into ND-4 Swiss-Webster mice (n=5) bearing midshaft femur fractures 10 days post-fracture).
The biodistribution was determined 18 hours post-injection (e.g., into ND-4 Swiss-Webster mice (n=5) bearing midshaft femur fractures 10 days post-fracture). In some instances, the accumulation of the labeled compounds in the fractured femurs are reported as a percent of the injected dose per gram of tissue. […]

[3] = Serum calcium after 21 days of treatment (QuantiChrom Calcium Assay); assay type: in vivo, Swiss Webster mouse; settings: FIG. 25
Description: In some instances, using a targeted anabolic described herein (e.g., as opposed to free anabolics) is beneficial for treating bone fracture, such as, for example, because targeted anabolics hereof can limit the effects on the regulation of calcium metabolism that occurs in the kidneys for parathyroid hormones.
For quantitative determination of calcium ion (Ca^2+) and evaluation of drug effects on calcium metabolism, the QuantiChrom Calcium Assay Kit from BioAssay Systems (Hayward, CA) was used. A phenolsulfonphthalein dye in the kit specifically forms a very stable, blue-colored complex with free calcium. The intensity of the color, measured at 612 nm, is directly proportional to the calcium concentration in the sample. […] The serum was removed from the cell pellet and stored at −80° C. until calcium concentration quantification. […] After that, the samples were incubated for 3 minute at room temperature and optical density at 570-650 nm (peak absorbance at 612 nm) was read to obtain the ODSAMPLE. […] The plate was tapped to mix and optical density was measured at the same wavelength to get ODSTANDARD. […] Optical density was read at the same wavelength measurement to get ODBLANK. […]
where ODSAMPLE, ODBLANK, and ODSTANDARD are the OD readings of the Sample, Sample Blank, and the Sample plus Standard respectively; 10 is the concentration of the standard in mg/dL, and n is the sample dilution factor. […]

CC1(C)C(/C=C/C2=C(Oc3ccc(CCNC(=O)CCN4C(=O)CC(SC[C@H](NC(=O)OCC5c6ccccc6-c6ccccc65)C(=O)N[C@H](CC(=O)O)C(=O)N[C@H](CC(=O)O)C(=O)N[C@H](CC(=O)O)C(=O)N[C@H](CC(=O)O)C(=O)N[C@H](CC(=O)O)C(=O)N[C@H](CC(=O)O)C(=O)N[C@H](CC(=O)O)C(=O)N[C@H](CC(=O)O)C(=O)N[C@H](CC(=O)O)C(=O)N[C@H](CC(=O)O)C(=O)O)C4=O)cc3)C(=C/C=C3/N(CCCCS(=O)(=O)O)c4ccc(S(=O)(=O)O)cc4C3(C)C)/CCC2)=[N+](CCCCS(=O)(=O)O)c2ccc(S(=O)(=O)O)cc21 (stereo partly shown) [(D)Asp10] (Fmoc-C(X2)[dD][dD][dD][dD][dD][dD][dD][dD][dD][dD]-OH)
half-life [1]: > 100 h

N[C@@H](Cc1ccc(O)c(I)c1)C(=O)N[C@@H](CSC1CC(=O)N(CCC(=O)N[C@@H](CC(=O)O)C(=O)N[C@@H](CC(=O)O)C(=O)N[C@@H](CC(=O)O)C(=O)N[C@@H](CC(=O)O)C(=O)N[C@@H](CC(=O)O)C(=O)N[C@@H](CC(=O)O)C(=O)N[C@@H](CC(=O)O)C(=O)N[C@@H](CC(=O)O)C(=O)O)C1=O)C(=O)O (stereo partly shown) [octa-aspartic acid] (HELM PEPTIDE1{[N[C@@H](Cc1ccc(O)c(I)c1)C(=O)N[C@@H](CSC1CC(=O)N(CCC(=O)[*:2])C1=O)C(=O)O].D.D.D.D.D.D.D.D}$$$$V2.0)
selectivity ratio [2]: 11.2

RQIKIWFQNRRMKWKKIPVGESLKDLIDQC [CK2.3]
fracture targetability of payloads coupled to (L)Asp10 (in words) (midshaft femur fractures): displayed no reduction in fracture accumulation

SVSEIQLMHNLGKHLNSMERVEWLRKKLQDVHNFVALGAPLAPRDA[dE][dE][dE][dE][dE][dE][dE][dE][dE][dE] [SEQ ID NO: 13]
blood (serum) calcium [3]: did not increase the blood calcium significantly in comparison to the free form
